Paper PMC9394431 (Cell, 2022)

Biological target: T1, α1β2γ2 GABAA receptor (Homo sapiens)
T1 chain 1: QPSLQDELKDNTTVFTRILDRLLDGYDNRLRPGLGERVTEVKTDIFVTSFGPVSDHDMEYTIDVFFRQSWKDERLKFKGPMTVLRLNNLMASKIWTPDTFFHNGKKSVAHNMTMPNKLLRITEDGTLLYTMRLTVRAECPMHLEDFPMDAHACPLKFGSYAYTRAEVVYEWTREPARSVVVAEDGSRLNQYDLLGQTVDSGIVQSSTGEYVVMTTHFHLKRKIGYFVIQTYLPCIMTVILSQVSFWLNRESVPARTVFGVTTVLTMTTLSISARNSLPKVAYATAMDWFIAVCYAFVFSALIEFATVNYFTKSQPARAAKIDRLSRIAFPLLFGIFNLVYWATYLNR
T1 chain 2: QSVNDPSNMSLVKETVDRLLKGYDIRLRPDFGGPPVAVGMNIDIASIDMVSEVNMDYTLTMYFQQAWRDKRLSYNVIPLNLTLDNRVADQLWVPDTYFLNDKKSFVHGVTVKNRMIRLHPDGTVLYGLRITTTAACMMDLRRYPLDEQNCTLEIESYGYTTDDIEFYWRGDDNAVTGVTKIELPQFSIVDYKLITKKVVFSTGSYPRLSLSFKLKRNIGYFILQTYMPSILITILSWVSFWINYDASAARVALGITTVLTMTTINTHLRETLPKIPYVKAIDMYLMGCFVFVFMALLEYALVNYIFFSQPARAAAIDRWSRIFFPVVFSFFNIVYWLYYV
T1 chain 3: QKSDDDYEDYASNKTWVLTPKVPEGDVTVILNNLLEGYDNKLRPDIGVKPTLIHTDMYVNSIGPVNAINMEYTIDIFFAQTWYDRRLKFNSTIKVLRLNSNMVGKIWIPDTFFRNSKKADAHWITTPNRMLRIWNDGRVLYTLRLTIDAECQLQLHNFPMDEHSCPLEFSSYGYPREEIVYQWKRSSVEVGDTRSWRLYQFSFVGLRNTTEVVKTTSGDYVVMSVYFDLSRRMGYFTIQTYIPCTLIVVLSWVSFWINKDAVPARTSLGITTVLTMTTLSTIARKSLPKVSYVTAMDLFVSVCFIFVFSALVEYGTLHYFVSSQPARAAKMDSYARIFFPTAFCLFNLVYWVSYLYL
Assay: SEC

B1: Fab175 (Fab, V domains shown)
VH: EVQLLESGEGLVQPGGSLRLSCAASGFTFKTYAMSWVRQAPGKGLEWVSAISGSGASTYYADFVEGRFTISRDNSKNTLYLQMNSLRAEDTAVYYCAKEPPAMVWFGGGYFDYWGQGTLVTVSS
VL: EIVLTQSPATLSLSPGERATLSCRASQSVSSYLAWYQQKPGQAPRLLIYDASNRATGIPARFSGSGSGTDFTLTISSLEPEDFAVYYCQQRSNWPPYSFGQGTKLEIK
- stoichiometry N: 1 Fab per receptor
